{
  "source": "patent US20250043302A1",
  "about": "“MUTATED HYDROXYPHENYLPYRUVATE DIOXYGENASE POLYPEPTIDE, AND CODING GENE AND USE THEREOF” (BEIJING DABEINONG BIOTECHNOLOGY CO., LTD., priority 2021, published 2025)",
  "molecules": {"B1": {"name": "AsHPPDm-A111T-F372A-02: nucleotide sequence encoding Avena sativa HPPD with A111T+F372A; vector DBN11781 (nucleic acid)", "DNA": "ATGCCACCTACTCCAGCTACAGCTACTGGTGCTGCTGCTGCTGCCGTTACTCCTGAGCACGCTGCCAGGTCATTCCCCAGGGTGGTTCGCGTGAACCCCAGATCTGATAGGTTCCCAGTTCTGAGCTTCCACCATGTTGAGCTGTGGTGCGCTGATGCTGCTTCTGCTGCTGGCAGGTTCTCTTTCGCTCTTGGTGCTCCACTCGCTGCTAGATCTGATCTGTCTACAGGAAATAGCGCTCATGCCTCACTCCTGCTTCGCTCAGGTGCTTTGGCCTTCCTCTTCACCGCTCCATATGCTCCCCCACCTCAGGAGGCTGCTACTGCTGCTACTACAGCCTCCATTCCAAGCTTCTCAGCTGATGCCGCTAGAACCTTCGCTGCTGCTCATGGACTTGCCGTGAGGTCTGTTGGTGTTCGCGTGGCTGATGCTGCTGAGGCTTTCAGAGTTTCCGTTGCCGGCGGAGCTAGGCCAGCTTTCGCTCCTGCTGATTTGGGACATGGTTTCGGCCTGGCTGAGGTTGAGCTTTACGGTGACGTGGTTCTCCGCTTCGTGTCTTACCCAGATGAGACTGACCTGCCTTTCCTTCCCGGCTTCGAGAGAGTTTCCTCTCCTGGTGCCGTGGATTACGGCCTGACAAGGTTCGACCACGTGGTTGGAAACGTTCCCGAGATGGCTCCAGTGATCGATTACATGAAGGGCTTCCTTGGATTCCATGAGTTCGCCGAGTTCACTGCTGAGGACGTGGGAACCACTGAGTCCGGTTTGAACTCTGTGGTTCTCGCCAACAATTCTGAGGCTGTTTTGCTCCCTCTGAATGAGCCTGTGCATGGAACCAAGAGGAGAAGCCAGATTCAAACTTACCTGGAGTACCACGGTGGCCCTGGAGTTCAGCATATCGCCCTTGCTTCTAATGATGTGTTGCGCACACTCAGAGAGATGCGCGCCAGAACCCCCATGGGAGGTTTCGAGTTCATGGCCCCACCACAGGCTAAGTACTACGAGGGCGTTAGAAGGATTGCTGGAGACGTGTTGAGCGAGGAGCAGATCAAGGAGTGCCAAGAGCTGGGTGTTCTTGTGGATAGGGATGACCAGGGCGTTCTGCTTCAAATTGCCACTAAGCCAGTGGGCGACCGCCCTACATTCTTCCTTGAGATGATTCAAAGAATCGGCTGCATGGAGAAGGATGAGGTTGGACAGGAGTACCAAAAGGGCGGATGCGGTGGCTTCGGAAAGGGTAACTTCAGCGAGTTGTTCAAGTCAATCGAGGACTACGAGAAGAGCCTCGAGGTGAAGCAGTCAGTGGTTGCCCAAAAGTCCTGA", "modifications": "AsHPPDm-A111T-F372A-02 Nucleotide Sequence", "notes": "vector DBN11781"}},
  "key": {"[1]": {"tested_on": "Arabidopsis thaliana T1 plants", "assay": "Isoxaflutole tolerance of transgenic Arabidopsis thaliana T1 plants (spray, bleached leaf area grade, damage score);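 as to Scores: Weighted damage index from 0 to 100 where higher means more damage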", "assay_type": "in vivo", "details": "Table 11; for Classification and statistics of the grade of pesticide damage Grade 0: number of plants at grade 0; for Classification and statistics of the grade of pesticide damage Grade 1: number of plants at grade 1; for Classification and statistics of the grade of pesticide damage Grade 2: number of plants at grade 2; for Classification and statistics of the grade of pesticide damage Grade 3: number of plants at grade 3; for Scores: pesticide damage score", "text": "T1 transformants were initially selected from the untransformed seeds using a glufosinate selection scheme. The Arabidopsis thaliana T1 plants (AsHPPD-02) into which the AsHPPD-02 nucleotide sequence was introduced, the Arabidopsis thaliana T1 plants (AsHPPDm-F372A-02) into which the AsHPPDm-F372A-02 nucleotide sequence was introduced, the Arabidopsis thaliana T1 plants (AsHPPDm-F383W-02) into which the AsHPPDm-F383W-02 nucleotide sequence was introduced, the Arabidopsis thaliana T1 plants (AsHPPDm-F372A-F383W-02) into which the AsHPPDm-F372A-F383W-02 nucleotide sequence was introduced, the Arabidopsis thaliana T1 plants (DBN11726N) into which the control recombinant expression vector DBN11726N was introduced, and the wild-type Arabidopsis thaliana plants (CK) (18 days after sowing) were sprayed respectively with topramezone at three concentrations (100 g ai/ha (four-fold field concentration, 4×), 200 g ai/ha (eight-fold field concentration, 8×), and 0 g ai/ha (water, 0×)), isoxaflutole at three concentrations (140 g ai/ha (two-fold field concentration, 2×), 280 g ai/ha (four-fold field concentration, 4×), and 0 g ai/ha (water, 0×)), and mesotrione at three concentrations (210 g ai/ha (two-fold field concentration, […]), 420 g ai/ha (four-fold field concentration, 4×), and 0 g ai/ha (water, 0×)), to determine the tolerance of Arabidopsis thaliana to the herbicides. The degree of damage caused by the herbicide was measured for each plant according to the proportion of bleached leaf area (the proportion of bleached leaf area=bleached leaf area/total leaf area×100%) 7 days after spraying (7 DAT): the case where there is basically no bleached phenotype is defined as grade 0, the case where the proportion of bleached leaf area is less than 50% is defined as grade 1, the case where the proportion of bleached leaf area is more than 50% is defined as grade 2, and the case where the proportion of bleached leaf area is 100% grade is defined as grade 3.\nAccording to the method as described above in point 6 of Example 1, the aforementioned Arabidopsis thaliana T1 plants and wild-type Arabidopsis thaliana plants (CK) (18 days after sowing) were sprayed respectively with topramezone at three concentrations (25 g ai/ha (one-fold field concentration, 1×). 100 g ai/ha (four-fold field concentration, 4×), and 0 g ai/ha (water, 0×)), isoxaflutole at three concentrations (35 g ai/ha (half-fold field concentration, 0.5×). 70 g ai/ha (one-fold field concentration, 1×), and 0 g ai/ha (water, 0×)), and mesotrione at three concentrations (52.5 g ai/ha (half-fold field concentration, 0.5×), 105 g ai/ha (one-fold field concentration, 1×), and 0 g ai/ha (water, 0×)) to detect the tolerance of Arabidopsis thaliana to the herbicides.\nAccording to the method as described above in point 6 of Example 1, the aforementioned Arabidopsis thaliana T1 plants and wild-type Arabidopsis thaliana plants (CK) (18 days after sowing) were sprayed with topramezone at three different concentrations (i.e., 100 g ai/ha (four-fold field concentration, 4×), 200 g ai/ha (eight-fold field concentration, 8×) and 0 g ai/ha (water, 0×)), isoxaflutole at three different concentrations (i.e., 140 g ai/ha (two-fold field concentration, 2×), 280 g ai/ha (four-fold field concentration, 4×) and 0 g ai/ha (water, 0×)), and mesotrione at three different concentrations (i.e., 210 g ai/ha (two-fold field concentration, 2×), 420 g ai/ha (four-fold field concentration, 4×) and 0 g ai/ha (water, 0×)) respectively to detect the herbicide tolerance of Arabidopsis thaliana. […]"}, "[2]": {"tested_on": "Arabidopsis thaliana T1 plants", "assay": "Mesotrione tolerance of transgenic Arabidopsis thaliana T1 plants (spray, bleached leaf area grade, damage score)", "assay_type": "in vivo", "set-up": "Scores: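 damage score 0-100 computed as Σ(N×S)/(T×M)×100 over grades 0-3 with higher meaning more damage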", "details": "Table 12; for Classification and statistics of the grade of pesticide damage Grade 0: number of plants at grade 0; for Classification and statistics of the grade of pesticide damage Grade 1: number of plants at grade 1; for Classification and statistics of the grade of pesticide damage Grade 2: number of plants at grade 2; for Classification and statistics of the grade of pesticide damage Grade 3: number of plants at grade 3; for Scores: pesticide damage score", "procedure,_shortened": "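Damage was assessed by bleaching grade (0 none; 1 <50%; 2 >50%; 3 100% of leaf area) one week after spraying. Sprays on 18-day-old T1 and wild-type plants used field-rate multiples: topramezone 25–200, isoxaflutole 35–280, mesotrione 52.5–420 g ai/ha.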"}},
  "data": [
    {"molecule": "B1", "values": [
      {"measurement": "Resistance evaluation", "setting": "[1]; isoxaflutole 140 g ai/ha (2×)", "result": "Moderately"},
      {"measurement": "Classification and statistics of the grade of pesticide damage Grade 0", "setting": "[1]; isoxaflutole 140 g ai/ha (2×)", "result": 5},
      {"measurement": "Classification and statistics of the grade of pesticide damage Grade 1", "setting": "[1]; isoxaflutole 140 g ai/ha (2×)", "result": 8},
      {"measurement": "Classification and statistics of the grade of pesticide damage Grade 2", "setting": "[1]; isoxaflutole 140 g ai/ha (2×)", "result": 1},
      {"measurement": "Classification and statistics of the grade of pesticide damage Grade 3", "setting": "[1]; isoxaflutole 140 g ai/ha (2×)", "result": 2},
      {"measurement": "Scores", "setting": "[1]; isoxaflutole 140 g ai/ha (2×)", "result": 33},
      {"measurement": "Resistance evaluation", "setting": "[1]; isoxaflutole 280 g ai/ha (4×)", "result": "Poorly resistant"},
      {"measurement": "Classification and statistics of the grade of pesticide damage Grade 0", "setting": "[1]; isoxaflutole 280 g ai/ha (4×)", "result": 0},
      {"measurement": "Classification and statistics of the grade of pesticide damage Grade 1", "setting": "[1]; isoxaflutole 280 g ai/ha (4×)", "result": 0},
      {"measurement": "Classification and statistics of the grade of pesticide damage Grade 2", "setting": "[1]; isoxaflutole 280 g ai/ha (4×)", "result": 16},
      {"measurement": "Classification and statistics of the grade of pesticide damage Grade 3", "setting": "[1]; isoxaflutole 280 g ai/ha (4×)", "result": 0},
      {"measurement": "Scores", "setting": "[1]; isoxaflutole 280 g ai/ha (4×)", "result": 67},
      {"measurement": "Resistance evaluation", "setting": "[2]; mesotrione 210 g ai/ha (2×)", "result": "Moderately"},
      {"measurement": "Classification and statistics of the grade of pesticide damage Grade 0", "setting": "[2]; mesotrione 210 g ai/ha (2×)", "result": 5},
      {"measurement": "Classification and statistics of the grade of pesticide damage Grade 1", "setting": "[2]; mesotrione 210 g ai/ha (2×)", "result": 8},
      {"measurement": "Classification and statistics of the grade of pesticide damage Grade 2", "setting": "[2]; mesotrione 210 g ai/ha (2×)", "result": 3},
      {"measurement": "Classification and statistics of the grade of pesticide damage Grade 3", "setting": "[2]; mesotrione 210 g ai/ha (2×)", "result": 0},
      {"measurement": "Scores", "setting": "[2]; mesotrione 210 g ai/ha (2×)", "result": 29},
      {"measurement": "Resistance evaluation", "setting": "[2]; mesotrione 420 g ai/ha (4×)", "result": "Poorly resistant"},
      {"measurement": "Classification and statistics of the grade of pesticide damage Grade 0", "setting": "[2]; mesotrione 420 g ai/ha (4×)", "result": 0},
      {"measurement": "Classification and statistics of the grade of pesticide damage Grade 1", "setting": "[2]; mesotrione 420 g ai/ha (4×)", "result": 8},
      {"measurement": "Classification and statistics of the grade of pesticide damage Grade 2", "setting": "[2]; mesotrione 420 g ai/ha (4×)", "result": 7},
      {"measurement": "Classification and statistics of the grade of pesticide damage Grade 3", "setting": "[2]; mesotrione 420 g ai/ha (4×)", "result": 1},
      {"measurement": "Scores", "setting": "[2]; mesotrione 420 g ai/ha (4×)", "result": 52}
    ]}
  ]
}
